Source: paper PMC7807036

Tests used:
thrombin (human) [1] = target: T1, thrombin (human) (UniProt P00734+P00734); test: fibrinogen clotting (light scattering); conditions: Clotting: 20 mM Tris, 150 mM NaCl, 5 mM KCl, 1 mM MgCl2, 1 mM CaCl2, pH 7.4, 12 nM thrombin, 25 C, 5 min; AFM binding conditions not given in the material
thrombin (human) [2] = target: T1, thrombin (human); test: AFM; conditions: Clotting: 20 mM Tris, 150 mM NaCl, 5 mM KCl, 1 mM MgCl2, 1 mM CaCl2, pH 7.4, 12 nM thrombin, 25 C, 5 min; AFM binding conditions not given in the material

Substance	binding signal (% inhibition of thrombin) (thrombin (human) [1])	binding signal (% of origami with bound thrombin) (thrombin (human) [2])
Aptarray (rectangular origami, 36 TBA15 + 36 HD22, 5.4 nm)	98.3	–
origami nanostructure IV (9 TBA15 + 9 HD22, ~5.4 nm)	–	76
